Reference: US6100445

T1: murine interleukin-1β converting enzyme (ICE) (mouse)
T1 sequence: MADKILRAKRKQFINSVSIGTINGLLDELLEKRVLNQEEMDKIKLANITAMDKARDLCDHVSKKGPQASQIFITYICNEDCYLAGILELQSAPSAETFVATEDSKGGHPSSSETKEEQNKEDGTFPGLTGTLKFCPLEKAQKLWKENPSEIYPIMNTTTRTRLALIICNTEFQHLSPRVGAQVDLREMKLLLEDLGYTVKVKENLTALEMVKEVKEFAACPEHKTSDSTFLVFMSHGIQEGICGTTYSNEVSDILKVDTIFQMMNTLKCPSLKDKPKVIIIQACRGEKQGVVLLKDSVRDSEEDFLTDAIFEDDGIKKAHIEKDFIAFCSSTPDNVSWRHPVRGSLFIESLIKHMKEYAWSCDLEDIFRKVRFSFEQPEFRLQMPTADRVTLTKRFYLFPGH


Tests used:
[1] = target: mouse precursor form of IL-1β (preIL-1β) (mouse) (UniProt P10749)
[2] = target: T1, murine interleukin-1β converting enzyme (ICE) (mouse)

Row | IL-1β (pg/ml) released into the medium by macrophages stimulated with LPS and ATP, ELISA [1] [pg/mL] | percent inhibition of matIL-1β release from LPS-treated ICE +/+ macrophages [2] [%] | Molecule
1 | 4430 | – | murine interleukin-1β converting enzyme (ICE)
2 | – | 78 | Ac-YVAD-aldehyde [tetrapeptide aldehyde Ac-YVAD-CHO]
